According to the supplement of paper PMC10724198:

Each sequence was assayed on Saccharomyces cerevisiae (assay: protein stability index of tFT-peptide fusion in deletion strain of DAS1 (PSI (0-1 scale)); higher = more stable (slower turnover)). Details: not given.
Description: (§1)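 MPS profiling in S. cerevisiae of two library types built from selected 12-aa C-degron peptides (IN1, IN2, LN1, LN3, VN2, R1-R5, W1-W3, Atg1 and Rpa12 C-termini): saturation mutagenesis libraries and C-terminal +1 capping libraries (13 aa). Each peptide is fused to the C-terminus of a sfGFP-mCherry timer, after a GGGS linker. Cells are FACS-sorted into 8 mCherry/sfGFP bins and sequenced. PSI runs from 0 (unstable) to 1 (stable), measured once in wild type and in the das1Δ or doa10Δ background.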
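Wherever protein stability index of tFT-peptide fusion in deletion strain of DAS1 is given: PSI is a weighted mean of each variant's read distribution over the sorted stability bins, computed only for variants having over 10 reads in total.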
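Wherever protein stability index of tFT-peptide fusion in wild type is given: PSI derived as read-weighted mean over the 8 sorting bins, only variants exceeding 10 total reads kept, mCherry placed adjacent to the peptide and sfGFP distal.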

Sequence	protein stability index
LVVYLSCVACLN	0.0375
LVVYLSCVACVN	0.0193
LVVYLSCVAFIN	0.0206
LVVYLSCVAHIN	0.0209
LVVYLSMVACIN	0.0257
LVVYLSYVACIN	0.142
LVVYMSCVACIN	0.0291
LVVYSSCVACIN	0.0458
LVWYLSCVACIN	0.0212
MSMRWTFRYWVN	0.536
MVVYLSCVACIN	0.0769
NKHKKGQKQKIN	0.562
NSLAASFWRVVG	0.679
PDFRNHLIKLLN	0.619
PDKREHLIKLLN	0.716
PDKRKHLIKLLN	0.583
PDKRNHCIKLLN	0.585
PDKRNHFIKLLN	0.603
PDKRNHLIKILN	0.663
PDKRNHLIKLAN	0.579
PDKRNHLIKLCN	0.583
PDKRNHLIKLDN	0.613
PDKRNHLIKLFN	0.551

Sequence	protein stability index
PDKRNHLIKLLL	0.615
PDKRNHLIKLLNM	0.659
PDKRNHLIKLLNS	0.669
PDKRNHLIKLLNW	0.684
PDKRNHLIKLLR	0.643
PDKRNHLIKLNN	0.598
PDKRNHLIKLWN	0.627
PDKRNHLILLLN	0.635
PDKRNHLKKLLN	0.616
PDKRPHLIKLLN	0.678
PDKYNHLIKLLN	0.59
PDMRNHLIKLLN	0.757
PDYRNHLIKLLN	0.607
PELAASFWRVVG	0.694
PKHKKGQKQKIN	0.747
PSAAASFWRVVG	0.678
PSHAASFWRVVG	0.697
PSLAASFARVVG	0.684
PSLAASFRRVVG	0.656
PSLAASFWRPVG	0.677
PSLAASFWRSVG	0.699
PSLAASFWRVGG	0.677
PSLAASFWRVVGH	0.707

Sequence	protein stability index
PSLAASFWRVVGL	0.713
PSLAASFWRVVGP	0.692
PSLAASFWRVVR	0.685
PSLAASFWRVWG	0.696
PSLAASFWYVVG	0.708
PSLAASIWRVVG	0.69
PSLAASSWRVVG	0.694
PSLAESFWRVVG	0.685
PSLALSFWRVVG	0.669
PSLASSFWRVVG	0.696
PSLAWSFWRVVG	0.724
PSLNASFWRVVG	0.699
PSPAASFWRVVG	0.69
PTKRNHLIKLLN	0.582
PVVYLSCVACIN	0.0265
QKHKKGQKQKIN	0.676
RDIQPLPVQFLN	0.596
REIQPLPVQFLN	0.61
RLEQPLPVQFLN	0.574
RLIAPLPVQFLN	0.738
RLIFPLPVQFLN	0.553
RLILPLPVQFLN	0.589
RLIMPLPVQFLN	0.572

Sequence	protein stability index
RLIQFLPVQFLN	0.539
RLIQKLPVQFLN	0.589
RLIQPHPVQFLN	0.776
RLIQPLPFQFLN	0.624
RLIQPLPLQFLN	0.619
RLIQPLPVLFLN	0.542
RLIQPLPVQFDN	0.624
RLIQPLPVQFLI	0.537
RLIQPLPVQFLP	0.57
RLIQPLPVQFMN	0.614
RLIQPLPVQFRN	0.609
RLIQPLPVQFVN	0.598
RLIQPLPVQFWN	0.618
RLIQPLPVVFLN	0.565
RLIQPLPVWFLN	0.609
RLIQPLSVQFLN	0.594
RLIQPLTVQFLN	0.608
RLIQTLPVQFLN	0.594
RLKQPLPVQFLN	0.559
RNIQPLPVQFLN	0.61

What follows are sequences tested on Saccharomyces cerevisiae (assay: protein stability index of tFT-peptide fusion in wild type (PSI (0-1 scale)); higher = more stable (slower turnover)). Details: genetic background: wild type.
Description: as §1

Sequence	protein stability index
LVVYLSCVACLN	0.0163
LVVYLSCVACVN	0.0169
LVVYLSCVAFIN	0.0135
LVVYLSCVAHIN	0.0148
LVVYLSMVACIN	0.0159
LVVYLSYVACIN	0.097
LVVYMSCVACIN	0.0151
LVVYSSCVACIN	0.0132
LVWYLSCVACIN	0.0133
MSMRWTFRYWVN	0.0515
MVVYLSCVACIN	0.0181
NKHKKGQKQKIN	0.122
NSLAASFWRVVG	0.147
PDFRNHLIKLLN	0.112
PDKREHLIKLLN	0.158
PDKRKHLIKLLN	0.171
PDKRNHCIKLLN	0.148
PDKRNHFIKLLN	0.102
PDKRNHLIKILN	0.137
PDKRNHLIKLAN	0.367
PDKRNHLIKLCN	0.22
PDKRNHLIKLDN	0.602
PDKRNHLIKLFN	0.346

Sequence	protein stability index
PDKRNHLIKLLL	0.332
PDKRNHLIKLLNM	0.145
PDKRNHLIKLLNS	0.117
PDKRNHLIKLLNW	0.571
PDKRNHLIKLLR	0.683
PDKRNHLIKLNN	0.447
PDKRNHLIKLWN	0.314
PDKRNHLILLLN	0.114
PDKRNHLKKLLN	0.101
PDKRPHLIKLLN	0.0997
PDKYNHLIKLLN	0.0777
PDMRNHLIKLLN	0.0863
PDYRNHLIKLLN	0.0727
PELAASFWRVVG	0.2
PKHKKGQKQKIN	0.0768
PSAAASFWRVVG	0.174
PSHAASFWRVVG	0.163
PSLAASFARVVG	0.622
PSLAASFRRVVG	0.665
PSLAASFWRPVG	0.656
PSLAASFWRSVG	0.168
PSLAASFWRVGG	0.676
PSLAASFWRVVGH	0.681

Sequence	protein stability index
PSLAASFWRVVGL	0.683
PSLAASFWRVVGP	0.684
PSLAASFWRVVR	0.688
PSLAASFWRVWG	0.38
PSLAASFWYVVG	0.655
PSLAASIWRVVG	0.143
PSLAASSWRVVG	0.167
PSLAESFWRVVG	0.482
PSLALSFWRVVG	0.183
PSLASSFWRVVG	0.165
PSLAWSFWRVVG	0.0943
PSLNASFWRVVG	0.159
PSPAASFWRVVG	0.115
PTKRNHLIKLLN	0.114
PVVYLSCVACIN	0.0343
QKHKKGQKQKIN	0.0918
RDIQPLPVQFLN	0.0918
REIQPLPVQFLN	0.121
RLEQPLPVQFLN	0.0758
RLIAPLPVQFLN	0.0614
RLIFPLPVQFLN	0.0304
RLILPLPVQFLN	0.0596
RLIMPLPVQFLN	0.0368

Sequence	protein stability index
RLIQFLPVQFLN	0.00974
RLIQKLPVQFLN	0.0183
RLIQPHPVQFLN	0.0682
RLIQPLPFQFLN	0.0405
RLIQPLPLQFLN	0.0437
RLIQPLPVLFLN	0.0545
RLIQPLPVQFDN	0.668
RLIQPLPVQFLI	0.0642
RLIQPLPVQFLP	0.62
RLIQPLPVQFMN	0.0175
RLIQPLPVQFRN	0.533
RLIQPLPVQFVN	0.0426
RLIQPLPVQFWN	0.132
RLIQPLPVVFLN	0.047
RLIQPLPVWFLN	0.0563
RLIQPLSVQFLN	0.0547
RLIQPLTVQFLN	0.065
RLIQTLPVQFLN	0.0873
RLKQPLPVQFLN	0.181
RNIQPLPVQFLN	0.0759
